Data as given in patent US20140087995A1 (published 2014).
Numbered stars: 1 amine (or outer) side, 2 acyl side, 3 side chain; on linkers, the order of the positions; unused ones are H or OH. Bridge positions count the residues as written; N and C are the ends. Side chains are listed from the residue outwards. Ends that are not written are not given here. * marks the point of attachment. C20 diacid = O=C(O)CCCCCCCCCCCCCCCCCCC(=O)*; γGlu = O=C(O)[C@H](CCC(=O)[*:2])N[*:1]

T1: rat calcitonin receptor (rat, UniProt P32214 25-516)
T1 construct: whole, on cells; Membranes prepared from transiently transfected BHK tk'ts 13 cells; also called rCTR; rat calcitonin (a) receptor
T1 sequence (looked up): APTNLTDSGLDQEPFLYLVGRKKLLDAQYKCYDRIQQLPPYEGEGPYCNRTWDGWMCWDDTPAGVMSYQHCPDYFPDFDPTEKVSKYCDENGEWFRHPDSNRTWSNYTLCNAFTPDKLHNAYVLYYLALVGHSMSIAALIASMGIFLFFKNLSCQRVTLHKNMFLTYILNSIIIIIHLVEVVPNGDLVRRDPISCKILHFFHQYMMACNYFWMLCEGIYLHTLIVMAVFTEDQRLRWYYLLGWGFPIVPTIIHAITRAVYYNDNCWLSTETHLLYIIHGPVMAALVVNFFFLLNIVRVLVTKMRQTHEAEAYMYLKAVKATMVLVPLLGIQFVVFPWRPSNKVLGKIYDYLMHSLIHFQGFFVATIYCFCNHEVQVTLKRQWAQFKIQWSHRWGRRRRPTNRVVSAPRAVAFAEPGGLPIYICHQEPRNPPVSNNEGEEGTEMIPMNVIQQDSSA

T2: human calcitonin receptor (human, UniProt P30988 25-474)
T2 construct: whole, on cells; Membranes from stably transfected BHK cells; also called hCTR; hCT
T2 sequence (looked up): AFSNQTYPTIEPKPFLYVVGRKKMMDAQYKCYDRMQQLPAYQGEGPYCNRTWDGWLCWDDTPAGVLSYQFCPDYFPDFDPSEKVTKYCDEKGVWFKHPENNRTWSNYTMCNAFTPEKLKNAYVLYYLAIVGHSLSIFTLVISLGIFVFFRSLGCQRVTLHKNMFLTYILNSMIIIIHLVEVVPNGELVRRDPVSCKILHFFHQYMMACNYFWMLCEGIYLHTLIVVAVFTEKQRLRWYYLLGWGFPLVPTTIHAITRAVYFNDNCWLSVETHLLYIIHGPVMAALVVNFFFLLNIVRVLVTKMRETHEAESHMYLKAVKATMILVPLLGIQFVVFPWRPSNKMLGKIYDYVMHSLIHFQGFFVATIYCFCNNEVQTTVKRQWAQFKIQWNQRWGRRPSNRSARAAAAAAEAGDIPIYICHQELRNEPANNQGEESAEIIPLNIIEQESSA

T3: rat amylin receptor (rat calcitonin receptor + rat RAMP 3) (rat, UniProt P32214 25-516; Q9JJ73 23-147)
T3 construct: whole, on cells; Membranes prepared from transiently transfected BHK tk'ts 13 cells; also called rAmylin-R; rat amylin 3(a) receptor
T3 sequence (looked up) 1: T1 sequence (looked up)
T3 sequence (looked up) 2: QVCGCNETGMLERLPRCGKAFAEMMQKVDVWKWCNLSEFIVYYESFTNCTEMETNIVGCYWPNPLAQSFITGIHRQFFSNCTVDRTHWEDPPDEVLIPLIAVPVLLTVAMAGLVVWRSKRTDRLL

B1: N^ε1-[(4S)-4-carboxy-4-[[(4S)-4-carboxy-4-(19-carboxynonadecanoylamino)butanoyl]amino]butanoyl]-[Glu14,Arg17,Pro21,Pro27,Arg34,Glu35]-h-amylin (peptide)
peptide: K([γGlu-γGlu-C20 diacid])CNTATCATQRLAEFLRHSSPNFGAIPSSTNVGRETY-NH2
modifications: disulfide 2-7; N-terminus assumed
SMILES: CC[C@H](C)[C@H](NC(=O)[C@H](C)NC(=O)CNC(=O)[C@H](Cc1ccccc1)NC(=O)[C@H](CC(N)=O)NC(=O)[C@@H]1CCCN1C(=O)[C@H](CO)NC(=O)[C@H](CO)NC(=O)[C@H](Cc1c[nH]cn1)NC(=O)[C@H](CCCNC(=N)N)NC(=O)[C@H](CC(C)C)NC(=O)[C@H](Cc1ccccc1)NC(=O)[C@H](CCC(=O)O)NC(=O)[C@H](C)NC(=O)[C@H](CC(C)C)NC(=O)[C@H](CCCNC(=N)N)NC(=O)[C@H](CCC(N)=O)NC(=O)[C@@H](NC(=O)[C@H](C)NC(=O)[C@@H]1CSSC[C@H](NC(=O)[C@@H](N)CCCCNC(=O)CC[C@H](NC(=O)CC[C@H](NC(=O)CCCCCCCCCCCCCCCCCCC(=O)O)C(=O)O)C(=O)O)C(=O)N[C@@H](CC(N)=O)C(=O)N[C@@H]([C@@H](C)O)C(=O)N[C@@H](C)C(=O)N[C@@H]([C@@H](C)O)C(=O)N1)[C@@H](C)O)C(=O)N1CCC[C@H]1C(=O)N[C@@H](CO)C(=O)N[C@@H](CO)C(=O)N[C@H](C(=O)N[C@@H](CC(N)=O)C(=O)N[C@H](C(=O)NCC(=O)N[C@@H](CCCNC(=N)N)C(=O)N[C@@H](CCC(=O)O)C(=O)N[C@H](C(=O)N[C@@H](Cc1ccc(O)cc1)C(N)=O)[C@@H](C)O)C(C)C)[C@@H](C)O
B2: N^ε1-[(4S)-4-carboxy-4-[[(4S)-4-carboxy-4-(19-carboxynonadecanoylamino)butanoyl]amino]butanoyl]-[Glu14,Arg17,Pro21,Pro27,Pro34,Phe37]-h-amylin (peptide)
peptide: K([γGlu-γGlu-C20 diacid])CNTATCATQRLAEFLRHSSPNFGAIPSSTNVGPNTF-NH2
modifications: disulfide 2-7; N-terminus assumed
SMILES: CC[C@H](C)[C@H](NC(=O)[C@H](C)NC(=O)CNC(=O)[C@H](Cc1ccccc1)NC(=O)[C@H](CC(N)=O)NC(=O)[C@@H]1CCCN1C(=O)[C@H](CO)NC(=O)[C@H](CO)NC(=O)[C@H](Cc1c[nH]cn1)NC(=O)[C@H](CCCNC(=N)N)NC(=O)[C@H](CC(C)C)NC(=O)[C@H](Cc1ccccc1)NC(=O)[C@H](CCC(=O)O)NC(=O)[C@H](C)NC(=O)[C@H](CC(C)C)NC(=O)[C@H](CCCNC(=N)N)NC(=O)[C@H](CCC(N)=O)NC(=O)[C@@H](NC(=O)[C@H](C)NC(=O)[C@@H]1CSSC[C@H](NC(=O)[C@@H](N)CCCCNC(=O)CC[C@H](NC(=O)CC[C@H](NC(=O)CCCCCCCCCCCCCCCCCCC(=O)O)C(=O)O)C(=O)O)C(=O)N[C@@H](CC(N)=O)C(=O)N[C@@H]([C@@H](C)O)C(=O)N[C@@H](C)C(=O)N[C@@H]([C@@H](C)O)C(=O)N1)[C@@H](C)O)C(=O)N1CCC[C@H]1C(=O)N[C@@H](CO)C(=O)N[C@@H](CO)C(=O)N[C@H](C(=O)N[C@@H](CC(N)=O)C(=O)N[C@H](C(=O)NCC(=O)N1CCC[C@H]1C(=O)N[C@@H](CC(N)=O)C(=O)N[C@H](C(=O)N[C@@H](Cc1ccccc1)C(N)=O)[C@@H](C)O)C(C)C)[C@@H](C)O
B3: N^ε1-[(4S)-4-carboxy-4-[[(4S)-4-carboxy-4-(19-carboxynonadecanoylamino)butanoyl]amino]butanoyl]-[Glu14,Arg17,Pro21,Pro27,Pro34,Arg35]-h-amylin (peptide)
peptide: K([γGlu-γGlu-C20 diacid])CNTATCATQRLAEFLRHSSPNFGAIPSSTNVGPRTY-NH2
modifications: disulfide 2-7; N-terminus assumed
SMILES: CC[C@H](C)[C@H](NC(=O)[C@H](C)NC(=O)CNC(=O)[C@H](Cc1ccccc1)NC(=O)[C@H](CC(N)=O)NC(=O)[C@@H]1CCCN1C(=O)[C@H](CO)NC(=O)[C@H](CO)NC(=O)[C@H](Cc1c[nH]cn1)NC(=O)[C@H](CCCNC(=N)N)NC(=O)[C@H](CC(C)C)NC(=O)[C@H](Cc1ccccc1)NC(=O)[C@H](CCC(=O)O)NC(=O)[C@H](C)NC(=O)[C@H](CC(C)C)NC(=O)[C@H](CCCNC(=N)N)NC(=O)[C@H](CCC(N)=O)NC(=O)[C@@H](NC(=O)[C@H](C)NC(=O)[C@@H]1CSSC[C@H](NC(=O)[C@@H](N)CCCCNC(=O)CC[C@H](NC(=O)CC[C@H](NC(=O)CCCCCCCCCCCCCCCCCCC(=O)O)C(=O)O)C(=O)O)C(=O)N[C@@H](CC(N)=O)C(=O)N[C@@H]([C@@H](C)O)C(=O)N[C@@H](C)C(=O)N[C@@H]([C@@H](C)O)C(=O)N1)[C@@H](C)O)C(=O)N1CCC[C@H]1C(=O)N[C@@H](CO)C(=O)N[C@@H](CO)C(=O)N[C@H](C(=O)N[C@@H](CC(N)=O)C(=O)N[C@H](C(=O)NCC(=O)N1CCC[C@H]1C(=O)N[C@@H](CCCNC(=N)N)C(=O)N[C@H](C(=O)N[C@@H](Cc1ccc(O)cc1)C(N)=O)[C@@H](C)O)C(C)C)[C@@H](C)O
notes: also called compound 110
B4: N^ε1-[(4S)-4-carboxy-4-[[(4S)-4-carboxy-4-(19-carboxynonadecanoylamino)butanoyl]amino]butanoyl]-[Glu14,Arg17,Pro21,Pro27,His34,Glu35]-h-amylin (peptide)
peptide: K([γGlu-γGlu-C20 diacid])CNTATCATQRLAEFLRHSSPNFGAIPSSTNVGHETY-NH2
modifications: disulfide 2-7; N-terminus assumed
SMILES: CC[C@H](C)[C@H](NC(=O)[C@H](C)NC(=O)CNC(=O)[C@H](Cc1ccccc1)NC(=O)[C@H](CC(N)=O)NC(=O)[C@@H]1CCCN1C(=O)[C@H](CO)NC(=O)[C@H](CO)NC(=O)[C@H](Cc1c[nH]cn1)NC(=O)[C@H](CCCNC(=N)N)NC(=O)[C@H](CC(C)C)NC(=O)[C@H](Cc1ccccc1)NC(=O)[C@H](CCC(=O)O)NC(=O)[C@H](C)NC(=O)[C@H](CC(C)C)NC(=O)[C@H](CCCNC(=N)N)NC(=O)[C@H](CCC(N)=O)NC(=O)[C@@H](NC(=O)[C@H](C)NC(=O)[C@@H]1CSSC[C@H](NC(=O)[C@@H](N)CCCCNC(=O)CC[C@H](NC(=O)CC[C@H](NC(=O)CCCCCCCCCCCCCCCCCCC(=O)O)C(=O)O)C(=O)O)C(=O)N[C@@H](CC(N)=O)C(=O)N[C@@H]([C@@H](C)O)C(=O)N[C@@H](C)C(=O)N[C@@H]([C@@H](C)O)C(=O)N1)[C@@H](C)O)C(=O)N1CCC[C@H]1C(=O)N[C@@H](CO)C(=O)N[C@@H](CO)C(=O)N[C@H](C(=O)N[C@@H](CC(N)=O)C(=O)N[C@H](C(=O)NCC(=O)N[C@@H](Cc1c[nH]cn1)C(=O)N[C@@H](CCC(=O)O)C(=O)N[C@H](C(=O)N[C@@H](Cc1ccc(O)cc1)C(N)=O)[C@@H](C)O)C(C)C)[C@@H](C)O

molecular target: T1, rat calcitonin receptor; assay: ratio of IC50 on rat calcitonin receptor to IC50 on rat amylin receptor

Row | Ratio rCT/rAmylin binding | Binder
1 | 158 | B1
2 | 114 | B2
3 | 73 | K([γGlu-γGlu-C20 diacid])CNTATCATQRLAEFLRHSSPNFGAIPSSTNVGPHTY-NH2 (disulfide 2-7 (inferred))
4 | 74.7 | K([γGlu-γGlu-C20 diacid])CNTATCATQRLAEFLRHSSPNFGAILSSTPVGPETY-NH2 (disulfide 2-7)
5 | 113 | B3
6 | 159 | B4

molecular target: T2, human calcitonin receptor; assay: ratio of IC50 on human calcitonin receptor to IC50 on human amylin receptor
Method in brief: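 Competition binding by SPA uses membrane preparations (35 ng/μL final) in pH 7.4 Hepes buffer with 1 mM CaCl2 and 5 mM MgCl₂. Incubation lasts 120 min at 25° C, and IC₅₀ comes from one-site fitting.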

Row | Ratio hCT/hAmylin binding | Binder
7 | 14.7 | B1
8 | 18 | B2
9 | 27.3 | K([γGlu-γGlu-C20 diacid])CNTATCATQRLAEFLRHSSPNFGAIPSSTNVGPHTY-NH2 (disulfide 2-7 (inferred))
10 | 22.6 | K([γGlu-γGlu-C20 diacid])CNTATCATQRLAEFLRHSSPNFGAILSSTPVGPETY-NH2 (disulfide 2-7)
11 | 53.6 | B3
12 | 29.1 | B4

molecular target: T1, rat calcitonin receptor; assay: SPA competition vs 125I-calcitonin, membranes (Assay VIII)

Row | IC50 | Binder
13 | 452 nM | B1
14 | 23.4 nM | B2
15 | 21 nM | K([γGlu-γGlu-C20 diacid])CNTATCATQRLAEFLRHSSPNFGAIPSSTNVGPHTY-NH2 (disulfide 2-7 (inferred))
16 | 33.5 nM | K([γGlu-γGlu-C20 diacid])CNTATCATQRLAEFLRHSSPNFGAILSSTPVGPETY-NH2 (disulfide 2-7)
17 | 38.3 nM | B3
18 | 498 nM | B4

molecular target: T3, rat amylin receptor (rat calcitonin …); assay: SPA competition vs 125I-rat amylin, membranes (Assay VI)

Row | IC50 | Binder
19 | 2.86 nM | B1
20 | 0.205 nM | B2
21 | 0.288 nM | K([γGlu-γGlu-C20 diacid])CNTATCATQRLAEFLRHSSPNFGAIPSSTNVGPHTY-NH2 (disulfide 2-7 (inferred))
22 | 0.449 nM | K([γGlu-γGlu-C20 diacid])CNTATCATQRLAEFLRHSSPNFGAILSSTPVGPETY-NH2 (disulfide 2-7)
23 | 0.339 nM | B3
24 | 3.14 nM | B4
